From US20260265403A1 (TJ BIOPHARMA SHANGHAI, published 2026)

T1: Human CD24 (human, UniProt P25063 27-59, limits assumed)
T1 chain (looked up): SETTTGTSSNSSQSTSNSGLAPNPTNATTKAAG

T2: human CD24 on cells (human, UniProt P25063 27-59)
T2 construct: whole, on cells; One molecule for all cell lines; the cell line is named under assay or readout; also called cell surface CD24; cell-based CD24
T2 chain (looked up): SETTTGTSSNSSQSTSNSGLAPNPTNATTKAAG


Legend:
[1] = target: T1, Human CD24; assay: affinity ranking; antibody as ligand, Human CD24 as analyte
[2] = target: T2, human CD24 on cells; assay: flow cytometry (GMFI), MCF-7 cells; EC50 table under the graphs
[3] = target: T2, human CD24 on cells; assay: flow cytometry (GMFI), SKOV3 cells; EC50 table under the graphs [Cont'd) B]
[4] = target: T1, Human CD24; assay: SPR, second 1:1 binding column set
[5] = target: T1, Human CD24; assay: SPR affinity ranking, 1:1 binding, analyte conc. 19.71 nM

Binder | Kd [1] [nM] | koff [1] [s⁻¹] | kon [1] [M⁻¹ s⁻¹] | EC50 [2] [µg/mL] | EC50 [3] [µg/mL] | Kd [4] [nM] | koff [4] [s⁻¹] | kon [4] [M⁻¹ s⁻¹] | Kd [5] [nM] | koff [5] [s⁻¹] | kon [5] [M⁻¹ s⁻¹]
VH + VL (4451 parental variable regions, Table 7) (antibody, V domains shown) VH: EVQLQQSGPELVKPGASVKISCKASGYDFTGYHMNWVKQSPEKSLEWIGEINPITSDKTFNQKFKSKATLTVDRSSSTAYMYLKSLTSEDSAVYYCARRDYGTSLDYWGQGTTLTVSS VL: DVQITQSPSYLAASPGETITIYCRASKSISKYLAWYQEKPEKTNRLLIYAGSTLHSGIPSRFRGSGSGKDFTLTVSGLEPEDFAMYYCQQHNEYPITFGAGTKLELK | 3.23 | 0.00937 | 2.9e+06 | 0.4 | 0.43 | – | – | – | – | – | –
Antibody No 3, lead clone of 4451H (HC N35G; LC L33G, T97I) (antibody, V domains shown) VH: QVQLVQSGAEVKKPGASVKVSCKASGYDFTGYHMGWVRQAPGQGLEWMGEINPITSDKTFNQKFKSRVTMTRDTSISTAYMELSRLRSDDTAVYYCARRDYGTSLDYWGQGTTVTVSS VL: DIQLTQSPSFLSASVGDRVTITCRASKSISKYGAWYQQKPGKAPKLLIYAGSTLHSGIPSRFRGSGSGTEFTLTISSLQPEDFATYYCQQHNEYPIIFGQGTKLEIK | – | – | – | – | – | 4.6 | 0.00766 | 1.66e+06 | 7.09 | 0.00827 | 1.17e+06
VH1 + VL2 (humanized 4451) (antibody, V domains shown, IgG expressed in HEK293) VH: QVQLVQSGAEVKKPGASVKVSCKASGYDFTGYHMNWVRQAPGQGLEWMGEINPITSDKTFNQKFKSRVTMTRDTSISTAYMELSRLRSDDTAVYYCARRDYGTSLDYWGQGTTVTVSS VL: DIQLTQSPSFLSASVGDRVTITCRASKSISKYLAWYQQKPGKAPRLLIYAGSTLHSGVPSRFRGSGSGTEFTLTISSLQPEDFATYYCQQHNEYPITFGQGTKLEIK | 13.8 | 0.0239 | 1.74e+06 | 0.4 | 0.38 | – | – | – | – | – | –
VH2 + VL1 (humanized 4451) (antibody, V domains shown, IgG expressed in HEK293) VH: QVQLVQSGAEVKKPGASVKVSCKASGYDFTGYHMNWVRQAPGQGLEWIGEINPITSDKTFNQKFKSRVTMTVDTSISTAYMELSRLRSDDTAVYYCARRDYGTSLDYWGQGTTVTVSS VL: DIQLTQSPSFLSASVGDRVTITCRASKSISKYLAWYQQKPGKAPKLLIYAGSTLHSGVPSRFSGSGSGTEFTLTISSLQPEDFATYYCQQHNEYPITFGQGTKLEIK | 20.9 | 0.0264 | 1.26e+06 | 0.45 | 0.45 | – | – | – | – | – | –
VH1 + VL1 (humanized 4451) (antibody, V domains shown, IgG expressed in HEK293) VH: QVQLVQSGAEVKKPGASVKVSCKASGYDFTGYHMNWVRQAPGQGLEWMGEINPITSDKTFNQKFKSRVTMTRDTSISTAYMELSRLRSDDTAVYYCARRDYGTSLDYWGQGTTVTVSS VL: DIQLTQSPSFLSASVGDRVTITCRASKSISKYLAWYQQKPGKAPKLLIYAGSTLHSGVPSRFSGSGSGTEFTLTISSLQPEDFATYYCQQHNEYPITFGQGTKLEIK | 17.6 | 0.0169 | 958000 | 0.43 | 0.45 | – | – | – | – | – | –
Antibody No 6, lead clone of 4451H (HC N35G; LC L33G) (antibody, V domains shown) VH: QVQLVQSGAEVKKPGASVKVSCKASGYDFTGYHMGWVRQAPGQGLEWMGEINPITSDKTFNQKFKSRVTMTRDTSISTAYMELSRLRSDDTAVYYCARRDYGTSLDYWGQGTTVTVSS VL: DIQLTQSPSFLSASVGDRVTITCRASKSISKYGAWYQQKPGKAPKLLIYAGSTLHSGIPSRFRGSGSGTEFTLTISSLQPEDFATYYCQQHNEYPITFGQGTKLEIK | – | – | – | – | – | 3.86 | 0.00763 | 1.98e+06 | 5.11 | 0.00796 | 1.56e+06
VH3 + VL1 (humanized 4451) (antibody, V domains shown, IgG expressed in HEK293) VH: QVQLVQSGAEVKKPGASVKVSCKASGYDFTGYHMNWVRQAPGQGLEWIGEINPITSDKTFNQKFKSRATMTVDTSISTAYMELSRLRSDDTAVYYCARRDYGTSLDYWGQGTTVTVSS VL: DIQLTQSPSFLSASVGDRVTITCRASKSISKYLAWYQQKPGKAPKLLIYAGSTLHSGVPSRFSGSGSGTEFTLTISSLQPEDFATYYCQQHNEYPITFGQGTKLEIK | 26 | 0.0294 | 1.13e+06 | 0.42 | 0.42 | – | – | – | – | – | –
Antibody No 15 (4451HM15), lead clone of 4451H (HC N35G, T59Y; LC K27A) (antibody, V domains shown) VH: QVQLVQSGAEVKKPGASVKVSCKASGYDFTGYHMGWVRQAPGQGLEWMGEINPITSDKYFNQKFKSRVTMTRDTSISTAYMELSRLRSDDTAVYYCARRDYGTSLDYWGQGTTVTVSS VL: DIQLTQSPSFLSASVGDRVTITCRASASISKYLAWYQQKPGKAPKLLIYAGSTLHSGIPSRFRGSGSGTEFTLTISSLQPEDFATYYCQQHNEYPITFGQGTKLEIK | – | – | – | – | – | 3.98 | 0.00509 | 1.28e+06 | 7.05 | 0.00755 | 1.07e+06
Antibody No 17, lead clone of 4451H (HC N35G, T59Y; LC L33G) (antibody, V domains shown) VH: QVQLVQSGAEVKKPGASVKVSCKASGYDFTGYHMGWVRQAPGQGLEWMGEINPITSDKYFNQKFKSRVTMTRDTSISTAYMELSRLRSDDTAVYYCARRDYGTSLDYWGQGTTVTVSS VL: DIQLTQSPSFLSASVGDRVTITCRASKSISKYGAWYQQKPGKAPKLLIYAGSTLHSGIPSRFRGSGSGTEFTLTISSLQPEDFATYYCQQHNEYPITFGQGTKLEIK | – | – | – | – | – | 3.41 | 0.00419 | 1.23e+06 | 4.42 | 0.0069 | 1.56e+06
Antibody No 16, lead clone of 4451H (HC N35G, T59Y; LC S30K) (antibody, V domains shown) VH: QVQLVQSGAEVKKPGASVKVSCKASGYDFTGYHMGWVRQAPGQGLEWMGEINPITSDKYFNQKFKSRVTMTRDTSISTAYMELSRLRSDDTAVYYCARRDYGTSLDYWGQGTTVTVSS VL: DIQLTQSPSFLSASVGDRVTITCRASKSIKKYLAWYQQKPGKAPKLLIYAGSTLHSGIPSRFRGSGSGTEFTLTISSLQPEDFATYYCQQHNEYPITFGQGTKLEIK | – | – | – | – | – | 6.99 | 0.00808 | 1.16e+06 | 7.51 | 0.016 | 2.13e+06
VH1 + VL4 (humanized 4451) (antibody, V domains shown, IgG expressed in HEK293) VH: QVQLVQSGAEVKKPGASVKVSCKASGYDFTGYHMNWVRQAPGQGLEWMGEINPITSDKTFNQKFKSRVTMTRDTSISTAYMELSRLRSDDTAVYYCARRDYGTSLDYWGQGTTVTVSS VL: DIQLTQSPSFLSASVGDRVTIYCRASKSISKYLAWYQQKPGKAPRLLIYAGSTLHSGIPSRFRGSGSGTEFTLTISSLQPEDFATYYCQQHNEYPITFGQGTKLEIK | 15 | 0.0241 | 1.61e+06 | 0.4 | 0.43 | – | – | – | – | – | –
VH2 + VL3 (humanized 4451) (antibody, V domains shown, IgG expressed in HEK293) VH: QVQLVQSGAEVKKPGASVKVSCKASGYDFTGYHMNWVRQAPGQGLEWIGEINPITSDKTFNQKFKSRVTMTVDTSISTAYMELSRLRSDDTAVYYCARRDYGTSLDYWGQGTTVTVSS VL: DIQLTQSPSFLSASVGDRVTITCRASKSISKYLAWYQQKPGKAPKLLIYAGSTLHSGIPSRFRGSGSGTEFTLTISSLQPEDFATYYCQQHNEYPITFGQGTKLEIK | 19.4 | 0.023 | 1.18e+06 | 0.42 | 0.42 | – | – | – | – | – | –
VH3 + VL2 (humanized 4451) (antibody, V domains shown, IgG expressed in HEK293) VH: QVQLVQSGAEVKKPGASVKVSCKASGYDFTGYHMNWVRQAPGQGLEWIGEINPITSDKTFNQKFKSRATMTVDTSISTAYMELSRLRSDDTAVYYCARRDYGTSLDYWGQGTTVTVSS VL: DIQLTQSPSFLSASVGDRVTITCRASKSISKYLAWYQQKPGKAPRLLIYAGSTLHSGVPSRFRGSGSGTEFTLTISSLQPEDFATYYCQQHNEYPITFGQGTKLEIK | 23.7 | 0.0262 | 1.1e+06 | 0.52 | 0.52 | – | – | – | – | – | –
VH2 + VL2 (humanized 4451) (antibody, V domains shown, IgG expressed in HEK293) VH: QVQLVQSGAEVKKPGASVKVSCKASGYDFTGYHMNWVRQAPGQGLEWIGEINPITSDKTFNQKFKSRVTMTVDTSISTAYMELSRLRSDDTAVYYCARRDYGTSLDYWGQGTTVTVSS VL: DIQLTQSPSFLSASVGDRVTITCRASKSISKYLAWYQQKPGKAPRLLIYAGSTLHSGVPSRFRGSGSGTEFTLTISSLQPEDFATYYCQQHNEYPITFGQGTKLEIK | 22 | 0.0234 | 1.06e+06 | 0.75 | – | – | – | – | – | – | –
VH4 + VL4 (humanized 4451) (antibody, V domains shown, IgG expressed in HEK293) VH: QVQLVQSGAEVKKPGASVKVSCKASGYDFTGYHMNWVKQAPGQGLEWIGEINPITSDKTFNQKFKSRATMTVDRSISTAYMELSRLRSDDTAVYYCARRDYGTSLDYWGQGTTVTVSS VL: DIQLTQSPSFLSASVGDRVTIYCRASKSISKYLAWYQQKPGKAPRLLIYAGSTLHSGIPSRFRGSGSGTEFTLTISSLQPEDFATYYCQQHNEYPITFGQGTKLEIK | 7.94 | 0.0122 | 1.53e+06 | 0.39 | – | – | – | – | – | – | –
